The text below walks through data of patent publication US20120171122A1 (published 2012).

The assay concerns the target T1, N-terminally biotinylated peptide HRRSARYLDTVL
T1 construct: Captured through its biotin on streptavidin coated onto the ELISA wells; also called ligand of NHERF PDZ1 mutant H9
T1 peptide: Biotin-HRRSARYLDTVL
As to the kind of experiment: ELISA; serial dilutions of GST-PDZ fusion on biotinylated peptide captured on streptavidin-coated wells; anti-His HRP detection. The protocol: The GST-PDZ fusion protein expressed by clone H2 was partially characterized. The DNA of clone H2 was transformed into E. coli strain BL21 [DE3] and the resulting transformant induced in 1 mL culture volume using 0.1 mM IPTG for 2.5 hours at 30° C. with shaking at 300 rpm. The cells were harvested from the culture medium and lysed using BugBuster (Novagen). Batch affinity purification was carried out using 50 μl of glutathione affinity resin (Novagen), eluting the bound protein in reduced glutathione elution buffer. […] The eluted protein was tested by ELISA for binding to N-terminally biotinylated peptide […] (SEQ ID NO: 14) bound to 0.1 μg of streptavidin coated onto each well of an ELISA plate. Serial dilutions of the protein were added to wells in which the peptide was present or absent (negative controls) and immuno-detection of a C-terminal hexahistidine tag provided by the modified pGEX-2TK vector was carried out using a horseradish peroxidase-conjugated antibody (Roche).
A general note: ELISA stands for enzyme-linked immunosorbent assay.

No end group written: not given here. *: point of attachment. Biotin = O=C1N[C@H]2[C@H](CS[C@H]2CCCCC(=O)*)N1

B1: GST-PDZ fusion protein expressed by clone H2 (NHERF PDZ1 loop-variant H2, CHPQFC inserted in loop β23 of NHERF PDZ1 mutant H9) (designed binder, not shown: a dimerising Fc or GST; large carriers; small tags and cut ends)
chain: LPRLCCLEKGPNGYGFHLHGEKGCHPQFCKVGQYIGLVVPGSPAEKAGLLAGDRLVEVNGENVEKETHQQVVSRIRAALNAVCLLVVDPE
notes: Partially purified on glutathione resin from induced E. coli BL21[DE3]; also called PDZ loop-variant H2; NHERF PDZ loop-variant H2
Regarding B1, the binding result is on record as “binds”.
